Patent US20220233638A1 (WASEDA UNIVERSITY, published 2022)

Molecular target: T1, GST-DLA88-α3 (dog, UniProt P18466 207-299)
T1 construct: also called recombinant protein containing only α3 domain of DLA88; not shown: glutathione S-transferase (GST) tag of expression vector pGEX-6p-1
Assay: biolayer interferometry (BLItz); GST-DLA88-α3 immobilised on anti-GST sensor, GST-LILRB3 D1/D2 loaded as sample
Experimental: The recombinant proteins DLA88-α3 and LILRB3-D1/D2 used in (b) were separately incubated at 37° C. for 2 hr, and immobilized on the BLI sensor for 5 min using DLA88-α3 as a ligand. LILRB3-D1/2D was loaded as a sample at the indicated concentrations.
BLItz™ ([…]) was used to analyze the dynamics between DLA88-α3 and LILRB3-D1/D2. A GST sensor and an anti-GST antibody-immobilized sensor ([…]) were used. GST-DLA88-α3 and GST-LILRB3-D1/D2 were separately incubated at 37° C. for 2 hr. GST-DLA88-α3 was immobilized on the GST sensor as a ligand molecule for 5 min and completely covered with the GST sensor. After washing with PBS-T (5% Tween-PBS) for 30 sec, GST-LILRB3 D1/D2 was loaded as a sample while trembling for 2 min. In addition to association kinetics, dissociation kinetics was evaluated in PBS-T buffer for 2 min. The recombinant protein GST-GFP was used as a control.

T1 sequence (P18466 other isoform, or with tags, fused parts or gaps): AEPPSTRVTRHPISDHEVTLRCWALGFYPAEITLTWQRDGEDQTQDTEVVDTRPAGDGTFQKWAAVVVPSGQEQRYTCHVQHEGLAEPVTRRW

B1: GST-LILRB3-D1/D2 (receptor)
chain: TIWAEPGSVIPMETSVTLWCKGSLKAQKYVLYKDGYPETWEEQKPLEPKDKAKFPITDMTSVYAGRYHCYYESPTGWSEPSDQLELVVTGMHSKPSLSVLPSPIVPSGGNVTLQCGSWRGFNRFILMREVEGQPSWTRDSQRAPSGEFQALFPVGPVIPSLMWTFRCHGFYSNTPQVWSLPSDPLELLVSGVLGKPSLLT
notes: also called LILRB3-D1/2D; not shown: glutathione S-transferase (GST) tag of expression vector pGEX-6p-1
Kd: 6.54 µM
